This passage reports Kd results from patent US20260348975 (published 2026).

Common to all, as to test: SPR
For orientation: Surface plasmon resonance follows binding to a sensor surface in real time, without labels.

The target of one assay is T1, reduced IL-33 (human).
T1 chain: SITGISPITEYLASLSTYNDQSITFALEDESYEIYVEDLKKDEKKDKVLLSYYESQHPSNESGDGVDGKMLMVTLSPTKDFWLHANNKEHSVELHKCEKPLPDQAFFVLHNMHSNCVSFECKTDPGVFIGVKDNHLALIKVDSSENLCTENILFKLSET

The target of the next assay is T2, IL-33/sST2 complex (human).
T2 chain 1: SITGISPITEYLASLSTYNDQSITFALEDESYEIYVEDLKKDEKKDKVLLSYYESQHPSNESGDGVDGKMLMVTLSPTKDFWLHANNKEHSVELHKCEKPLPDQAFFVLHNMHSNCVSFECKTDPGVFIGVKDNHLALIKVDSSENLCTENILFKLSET
T2 chain 2: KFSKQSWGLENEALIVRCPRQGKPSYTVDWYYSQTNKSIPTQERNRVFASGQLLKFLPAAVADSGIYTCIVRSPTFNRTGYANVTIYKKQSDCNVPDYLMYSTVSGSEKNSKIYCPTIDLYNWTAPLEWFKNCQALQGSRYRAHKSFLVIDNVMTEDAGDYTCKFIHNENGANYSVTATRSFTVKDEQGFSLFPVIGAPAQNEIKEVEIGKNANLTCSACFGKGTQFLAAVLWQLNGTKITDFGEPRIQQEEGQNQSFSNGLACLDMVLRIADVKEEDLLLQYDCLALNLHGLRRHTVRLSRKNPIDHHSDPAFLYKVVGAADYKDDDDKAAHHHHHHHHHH

For the next assay, the target named is T3, oxidized IL-33 (human).
T3 chain: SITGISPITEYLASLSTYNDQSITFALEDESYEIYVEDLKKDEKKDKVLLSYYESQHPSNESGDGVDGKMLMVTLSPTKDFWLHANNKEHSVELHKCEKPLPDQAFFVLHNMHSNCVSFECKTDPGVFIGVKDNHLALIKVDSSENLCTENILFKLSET

As usually defined, the Kd is the free concentration of one partner at which half of the binding sites on the other are occupied at equilibrium, for simple one-to-one binding. The low end stands for tighter binding, the high end for weaker binding.

B1: AB1070008 (antibody, V domains shown)
VH: QVQLQQSGPELVKPGASVKTSCKASGYSFTSYYIHWVKQRPGQGLEWIGWIYPGSGNTKYNEKFKGKATLTADTSSSTAFMQLSSLTSEDSAVYYCASGFHYYGRMDYWGQGTTLTVSS
VL: DIQMTQSPSSLSASLGERVSLTCRASQEISGYLSWLQQKPDGTIKRLIYSTSTLDSGVPKSFSGSRSGSDYSLTISSLESEDFADYYCLQYASSPWTFGGGTKLEIK
On to B1, for which the Kd came out at 0.895 nM with reduced IL-33 and 26.5 nM with IL-33/sST2 complex.

B2: AB1070019 (antibody, V domains shown)
VH: QVQLQQSGAELAKPGASVKMSCKASGYTFTRYWMHWIKQRPGQGLEWIGYINPYSGYTEYNQKFKDKATLTADKSSSTAYMQLSSLTSEDSAVYYCARYSYYTYDGRGYAMDYWGQGTSVTVSS
VL: DIVMTQSQKFMSTSVGDRVSVTCKASQNVGTNVAWYQQKPGQSPKALIYSASYRYSGVPDRFTGSGSGTDFTLTISNVQSEDLAEYFCQQYNSYPFTFGSGTKLEIK
Molecule B2 displayed a Kd with reduced IL-33 of 0.068 nM.

B3: AB1070141 (antibody, V domains shown)
VH: QVQLQQSGAELMKPGASVKLSCKATGYIVTDYWIEWVKQRPGHGLEWIGEILPRSDSTNYNEKFKVRATFTADTSSNTAYMQLSSLTTEDSAIYYCASHYHYDGSLFVYWGQGTLVTVSS
VL: DIVMSQSPSSLAVSAGEKVTMSCKSSQSLLNSRTRKNYLAWYQQKPGQSPKLLIYWASTRESGVPDRFTGSGSGTDFTLTISSVQAEDLAVYYCKQSYSLPTFGGGTKLEIK
In the case of B3, the Kd with oxidized IL-33 worked out at 1.83 nM.
